Data set [1] concerns the target T1, PPARA;RXRA (mouse;mouse, UniProt P23204;P28700 1-468;1-467, |).
T1 sequence 1: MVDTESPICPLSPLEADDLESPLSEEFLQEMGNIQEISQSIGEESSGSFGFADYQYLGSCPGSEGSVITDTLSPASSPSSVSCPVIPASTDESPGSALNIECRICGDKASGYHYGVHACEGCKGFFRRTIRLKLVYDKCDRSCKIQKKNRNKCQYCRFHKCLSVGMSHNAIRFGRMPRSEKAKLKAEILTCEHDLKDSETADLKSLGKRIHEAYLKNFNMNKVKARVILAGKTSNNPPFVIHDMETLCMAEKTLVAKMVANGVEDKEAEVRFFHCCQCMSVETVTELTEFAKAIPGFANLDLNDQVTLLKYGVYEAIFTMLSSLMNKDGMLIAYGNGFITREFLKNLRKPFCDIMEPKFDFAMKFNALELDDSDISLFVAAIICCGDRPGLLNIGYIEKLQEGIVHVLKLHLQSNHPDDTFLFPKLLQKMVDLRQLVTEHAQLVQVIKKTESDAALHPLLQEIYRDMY
T1 sequence 2: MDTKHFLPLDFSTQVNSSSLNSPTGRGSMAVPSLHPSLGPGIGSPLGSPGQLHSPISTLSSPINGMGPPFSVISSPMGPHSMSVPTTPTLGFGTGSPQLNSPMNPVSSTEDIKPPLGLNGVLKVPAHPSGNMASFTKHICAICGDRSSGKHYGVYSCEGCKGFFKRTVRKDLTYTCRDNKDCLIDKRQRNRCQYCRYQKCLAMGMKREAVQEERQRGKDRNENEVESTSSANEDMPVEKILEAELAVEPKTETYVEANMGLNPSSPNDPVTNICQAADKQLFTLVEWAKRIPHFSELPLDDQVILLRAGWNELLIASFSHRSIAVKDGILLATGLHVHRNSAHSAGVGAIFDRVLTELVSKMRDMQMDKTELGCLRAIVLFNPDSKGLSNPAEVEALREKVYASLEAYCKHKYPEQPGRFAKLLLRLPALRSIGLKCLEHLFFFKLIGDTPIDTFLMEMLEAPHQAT
Nature of the data set: EMSA. A general note: In EMSA bound probe runs differently from free probe, usually more slowly.

The target in data set [2] is T1, PPARA;RXRA. The data set can be described thus: EMSA. This is another data set of the same source.

Read-outs that look alike come from different tables or passages of the source.

B1: Ppara-PPRE6 (dsDNA)
DNA 1: AAGTTTCAATGACCTTTGGGACAGTTAACTA
DNA 2: TAGTTAACTGTCCCAAAGGTCATTGAAACTT
Turning to B1, the binding result in data set [1] is listed as “binds”.

B2: E2f8-PPRE4 (dsDNA)
DNA 1: AGGCCCAGTAGGTTAAAGGGCTGACATTTTA
DNA 2: TAAAATGTCAGCCCTTTAACCTACTGGGCCT
Turning to B2, in data set [1], the binding result is “binds”.

B3: Control (Acox1)-PPRE (dsDNA)
DNA 1: TCCCGAACGTGACCTTTGTCCTGGTCCCCTG
DNA 2: CAGGGGACCAGGACAAAGGTCACGTTCGGGA
Turning to B3, the binding result in data set [2] is “binds”.

The record behind these values is publication PMC9036120.
